# The Human Domainome abundance scans (Beltran et al. 2025)
# ± gives the uncertainty stated by the source.
# B1: Nanos homolog 2, residues 63 to 115; numbered along this chain, P60321 (parent)
# chain: CNFCKHNGESRHVYSSHQLKTPDGVVVCPILRHYVCPVCGATGDQAHTLKYCP
# Variants of: B1
# Experiment: abundance fitness (aPCA) (normalised: wild type 0, dead -1); higher = more abundant; growth selection in yeast, the domain comes from the species named
# Conditions: Homo sapiens
row,Variant,abundance fitness
1,C36Y,-0.726 ± 0.23
2,C36R,-0.658 ± 0.083
3,C36Q,-0.471 ± 0.22
4,C36P,-0.74 ± 0.24
5,C36F,-0.888 ± 0.13
6,C36L,-1 ± 0.11
7,K5H,-0.3 ± 0.12
8,K5E,-0.24 ± 0.083
9,K5L,-0.144 ± 0.046
10,K5Q,-0.281 ± 0.11
11,K5D,-0.401 ± 0.097
12,L19E,-0.013 ± 0.12
13,L19D,-0.172 ± 0.18
14,L19W,-0.089 ± 0.16
15,L19M,-0.051 ± 0.12
16,L19T,-0.041 ± 0.13
17,L19R,-0.372 ± 0.082
18,I30T,0.111 ± 0.098
19,I30L,-0.033 ± 0.084
20,I30C,-0.304 ± 0.15
21,I30D,-0.345 ± 0.28
22,P22H,-0.107 ± 0.19
23,P22S,0.037 ± 0.069
24,P22E,-0.184 ± 0.1

row,Variant,abundance fitness
1,P22K,0.306 ± 0.13
2,P22N,-0.12 ± 0.22
3,P22T,-0.084 ± 0.092
4,C39K,-0.608 ± 0.11
5,C39M,-0.717 ± 0.2
6,C39W,-0.708 ± 0.11
7,C39D,-0.837 ± 0.32
8,S16W,-0.557 ± 0.08
9,S16P,-0.459 ± 0.16
10,S16V,-0.562 ± 0.095
11,S16Y,-0.489 ± 0.088
12,S16L,-0.456 ± 0.074
13,S10F,-0.251 ± 0.082
14,S10T,-0.248 ± 0.12
15,S10E,0.025 ± 0.1
16,S10W,-0.442 ± 0.086
17,S10P,0.02 ± 0.078
18,S10N,-0.198 ± 0.14
19,S10I,-0.149 ± 0.069
20,V27E,-0.148 ± 0.12
21,V27G,-0.085 ± 0.082
22,V27P,-0.434 ± 0.09
23,R32A,-0.241 ± 0.083
24,R32H,-0.368 ± 0.16

row,Variant,abundance fitness
1,R32K,-0.204 ± 0.14
2,R32P,-0.715 ± 0.14
3,C4P,-0.693 ± 0.067
4,C4V,-0.952 ± 0.088
5,C4N,-0.694 ± 0.079
6,C4H,-0.688 ± 0.22
7,P53S,-0.439 ± 0.2
8,Q18R,-0.114 ± 0.073
9,Q18P,-0.183 ± 0.074
10,Q18F,-0.079 ± 0.069
11,Q18T,-0.145 ± 0.13
12,Q18H,0.081 ± 0.17
13,Q18S,-0.104 ± 0.082
14,Q18K,0.133 ± 0.13
15,E9S,-0.26 ± 0.089
16,E9N,-0.153 ± 0.1
17,E9P,-0.25 ± 0.1
18,E9G,-0.274 ± 0.056
19,E9L,-0.277 ± 0.079
20,E9D,-0.298 ± 0.1
21,E9M,-0.116 ± 0.073
22,E9A,-0.103 ± 0.061
23,H47K,-0.616 ± 0.2
24,H47R,-0.443 ± 0.12

row,Variant,abundance fitness
1,H47I,-0.981 ± 0.17
2,H47S,-1.01 ± 0.29
3,H47M,-0.647 ± 0.12
4,H47T,-0.695 ± 0.24
5,H47V,-0.628 ± 0.064
6,H47P,-0.607 ± 0.19
7,H47G,-0.643 ± 0.067
8,H47N,-0.591 ± 0.1
9,V25H,-0.489 ± 0.18
10,V25T,0.004 ± 0.071
11,V25E,0.015 ± 0.067
12,V25F,0.166 ± 0.17
13,V25L,0.074 ± 0.095
14,Q45L,-0.037 ± 0.094
15,Q45W,-0.368 ± 0.18
16,Q45E,-0.186 ± 0.09
17,Q45V,-0.047 ± 0.067
18,Q45P,-0.429 ± 0.15
19,Q45F,-0.043 ± 0.26
20,Q45N,0.085 ± 0.2
21,Q45G,-0.003 ± 0.068
22,H33V,0.033 ± 0.069
23,H33K,-0.013 ± 0.11
24,H33C,-0.013 ± 0.11

row,Variant,abundance fitness
1,H33Y,-0.335 ± 0.11
2,H33D,0.127 ± 0.1
3,H33E,-0.082 ± 0.12
4,H33W,-0.086 ± 0.09
5,H33I,-0.435 ± 0.19
6,H33F,-0.534 ± 0.16
7,H33R,0.036 ± 0.05
8,P29R,-0.503 ± 0.06
9,P29G,-0.588 ± 0.089
10,P29W,-1.07 ± 0.35
11,P29A,-0.786 ± 0.25
12,P29N,-0.779 ± 0.4
13,P29L,-0.978 ± 0.15
14,P29Q,-0.38 ± 0.17
15,Y51I,-0.34 ± 0.17
16,Y51F,0.097 ± 0.12
17,Y51C,-0.21 ± 0.11
18,Y51T,-0.097 ± 0.12
19,Y51D,-0.381 ± 0.15
20,Y51M,-0.203 ± 0.12
21,Y51N,0.075 ± 0.13
22,Y51P,-0.287 ± 0.074
23,C28G,-0.535 ± 0.058
24,C28R,-0.752 ± 0.09

row,Variant,abundance fitness
1,C28A,-0.714 ± 0.12
2,C28T,-0.586 ± 0.16
3,C28L,-0.962 ± 0.078
4,C28Q,-0.428 ± 0.2
5,V35H,0.293 ± 0.2
6,V35C,-0.253 ± 0.089
7,V35K,-0.076 ± 0.1
8,V35N,-0.254 ± 0.16
9,V35R,-0.1 ± 0.081
10,V35F,-0.676 ± 0.2
11,N2P,-0.812 ± 0.19
12,N2C,-0.701 ± 0.082
13,N2W,-0.759 ± 0.08
14,N2I,-0.157 ± 0.12
15,N2K,-0.255 ± 0.076
16,N2A,-0.823 ± 0.054
17,K20M,-0.368 ± 0.12
18,K20V,-0.204 ± 0.06
19,K20C,-0.071 ± 0.089
20,K20Q,-0.47 ± 0.16
21,G40A,-0.08 ± 0.12
22,G40T,-0.063 ± 0.12
23,G40R,0.021 ± 0.066
24,G40Q,-0.172 ± 0.23

row,Variant,abundance fitness
1,G40N,-0.134 ± 0.21
2,G40S,-0.052 ± 0.093
3,G40E,0.13 ± 0.15
4,H17S,-0.674 ± 0.1
5,H17C,-0.737 ± 0.16
6,H17V,-0.769 ± 0.071
7,H17F,-0.86 ± 0.37
8,H17W,-1.14 ± 0.21
9,H17N,-0.711 ± 0.23
10,H17R,-0.644 ± 0.082
11,H17E,-0.512 ± 0.14
12,H17Q,-0.452 ± 0.083
13,P37V,-0.072 ± 0.066
14,P37H,-0.034 ± 0.11
15,P37S,0.156 ± 0.1
16,P37Q,0.324 ± 0.2
17,P37G,-0.046 ± 0.059
18,P37M,-0.101 ± 0.12
19,P37W,-0.642 ± 0.15
20,P37L,-0.214 ± 0.098
21,P37Y,-0.305 ± 0.41
22,P37K,0.139 ± 0.081
23,P37T,-0.09 ± 0.11
